Article PMC12377726 (Proceedings of the National Academy of Sciences of the …, 2025)

B1: G001_gp1_V10_VRC01c_2021-0115 (antibody, V domains shown)
VH: QVQLVQSGAEVKKPGASVKVSCNASGYTFTGYYMHWVRQAPGQGLEWMGWINPNSGGTNFAQKFQGWVTMTRDTSISTAYMELSRLRSDDTAVYYCARSIVGATIFVYWGQGTLVTVSS
VL: EIVLTQSPGTLSLSPGERATLSCRASQSLSSSYLAWYQQKPGQAPRLLIYGASSRATGIPDRFSGSGSGTDFTLTISRLEPEDFAVYYCQQYGAFGPGTKVDIK
B2: G001_gp1_V10_VRC01c_2021-0126 (antibody, V domains shown)
VH: QVQLVQSGAEVKKPGASVKVSCKASESTFTDYYMHWVRQAPGQGLEWMGWMNPNSGGTNYALKFQGRVTMTRDTSISTAYMELSRLRSDDTAVYYCATKRRGTYFDQWGQGTLVTVSS
VL: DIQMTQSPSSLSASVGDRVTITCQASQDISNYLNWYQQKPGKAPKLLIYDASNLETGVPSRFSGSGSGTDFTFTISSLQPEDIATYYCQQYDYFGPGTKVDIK
B3: G001_gp1_V10_VRC01c_2021-0125 (antibody, V domains shown)
VH: QVQLVQSGAEVKKPGASVKVSCKASGYTFTGYYIHWVRQAPGQGLEWMGWLNPNSGGTNYLQKFQDRVTMTRDTSIGTAYMELSTLRSDDTAVYYCARGNSGPWAWRYWGQGTLVTVSS
VL: QSALTQPASVSGSPGQSITISCTGTSSDVGGYNSVSWYQQHPGKAPKLMIYDVSNRPSGVSNRFSGSKSGNTASLTISGLQPEDEADYYCSSYEVFGGGTKLTVL
B4: G001_gp1_V10_VRC01c_2021-0120 (antibody, V domains shown)
VH: QVQLVQSGAEVKKPGASVKVSCKASGYTFSGYYMHWVRQAPGQGLEWMGWINPNSGGTNYAQRFQDWVTMTRDTSISTAYMELSRLRSDDTAVYYCARAEYSSAWCFDYWGQGTLVTVSS
VL: DIQMTQSPSSLSASVGDRVTITCQASQDSSKSLNWYQQKPGKAPKLLIYDVSNLETGVPSRFSGSGSGRDFTFTISSLQAEDTATYYCQQYDIFGPGTKVHIK
B5: G001_gp1_V10_VRC01c_2021-0137 (antibody, V domains shown)
VH: QVQLVQSGAEVKKPGASVKVSCKASGYTFTGYYMYWVRQAPGQGFEWMGWLNPNSGGTNYAQKFQGRVTMTRDTSISTAYMELSRLRSDDTAVYYCARVTSGSGWAFDYWGQGTLVTVSS
VL: DIQMTQSPSSLSASVGDRVTITCQASQDISNNLNWYQQKPGKAPKLLIYDVSNLETGVPSRFSGSGSGTDFTFTISSLQPEDIATYYCQQYGTFGGGTKVEIK
B6: G001_gp1_V10_VRC01c_2021-0122 (antibody, V domains shown)
VH: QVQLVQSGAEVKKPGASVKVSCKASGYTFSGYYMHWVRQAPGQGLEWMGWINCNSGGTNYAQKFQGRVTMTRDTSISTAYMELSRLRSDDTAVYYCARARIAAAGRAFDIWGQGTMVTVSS
VL: DIQMTQSPSSLSASVGDRVTITCQASQDISNYLNWYQQKPGKAPKLLIYDASNLETGVPSRFSGSGSGTDFTFTISSLQPEDIATYYCQQYGTFGQGTKLEIK
B7: G001_gp1_V10_VRC01c_2021-0132 (antibody, V domains shown)
VH: QVQLVQSGAEVKKPGASVKVSCQASGYTFTAYHMHWVRQAPGQGLEWMGWINPTSGGTNYAQKFQGRVTMTRDTSITTAYMDLTRLRSDDTAVYYCARHRGGWFFDLWGRGTLVTVSS
VL: DIQMTQSPSSLSASVGDRVTITCQASQDISNYLNWYQQKPGKAPNLLIYDASNLEAGVPSRFSGSGSGTDFTFTISSLQPEDIATYYCQQYETFGQGTKLEIR
B8: G001_gp1_V10_VRC01c_2021-0135 (antibody, V domains shown)
VH: QVQLVQSGAEVKKPGASVKVSCKASGYTFTDYYMHWVRQAPGQGLEWMGWINPSSGGTNYAQKFQDWVTMTRDTSISTAYMELSRLRSDDTAVYYCATVAPAAATWGFDSWGQGTLVTVSS
VL: DIQTTQSPSSLSASVGDRVTITCQASQDISNHLNWYQQKPGKGPKLLIYDASNLKTGVPSRFSGSGSGTDFTFIISSLQPEDIATYYCQQYEFFGPGTKVDIK
B9: G001_gp1_V10_VRC01c_2021-0134 (antibody, V domains shown)
VH: QVQLVQSGAEVKKPGASVKVSCEASGYTFTGSYMHWVRQAPGQGLEWMGWINPNSGGTNYAQKFQGRVTMTRDTSITTAYMELSRLRSDDTAVYYCATRAAATNWYFDLWGRGTLVTVSS
VL: DIQMTQSPSSLSASVGDRVTITCQASQDINNHLNWYQQKPGKALKLLIYDASNLQTGVPSRFSGSGSGTDFTFTISSLQPEDIATYYCQQYEFFGGGTKVEIG
B10: G001_gp1_V10_VRC01c_2021-0127 (antibody, V domains shown)
VH: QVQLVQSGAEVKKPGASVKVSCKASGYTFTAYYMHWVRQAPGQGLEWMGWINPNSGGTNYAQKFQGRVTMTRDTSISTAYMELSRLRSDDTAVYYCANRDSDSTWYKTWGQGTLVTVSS
VL: DIQMTQSPSSLSASVGDRVTITCQASQDITNHLNWYQQKPGKAPKLLIYDASNLETGVPSSFSGSGSGTDFTFTISSLQPEDVATYYCQQYVTFGGGTKVEIK
B11: G001_gp1_V10_VRC01c_2021-0131 (antibody, V domains shown)
VH: QVQLVQSGAEVKKPGASVKVSCEASGYTFTDYYIHWVRQAPGQGLEWMGWINPSSGGTNYAQKFQGWVTMTRDTSISTAYMELSRLTSDDTAFYYCARGLGRQWEWGYWGQGTLVTVSS
VL: DIQMTQSPPSLSASVGDRVTITCQASQDISKYLNWYQQKAGKAPKLLIYDVSNLETGVPSRFSGSGSGTDFTFTISSLQPEDIATYYCQQYEFFGQGTRLEIK
B12: G001_gp1_V10_VRC01c_2021-0133 (antibody, V domains shown)
VH: QVQLVQSGPEVKKPGASVKVSCTASGFSFTGYYIHWLRQAPGPGLEWMGWINPNSGGTNYAQIFQDRVTMTRDTSISTAYMELSRLRSDDTAVYYCARVSVTTVWYFDLWGRGTLVTVSS
VL: DIQMTQSPSSLSASVGDRVTITCQASQDISNYLNWYQQKPGKAPKLLIYDVFNLETGVPSRFSGSGSGTDFTFTISSLQPEDIATYYCQQYETFGGGTKVEIK
B13: G001_gp1_V10_VRC01c_2021-0128 (antibody, V domains shown)
VH: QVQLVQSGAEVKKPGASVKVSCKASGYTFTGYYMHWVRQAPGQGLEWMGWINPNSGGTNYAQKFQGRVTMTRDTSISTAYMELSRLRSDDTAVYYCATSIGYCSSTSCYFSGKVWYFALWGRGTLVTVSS
VL: DIQMTQSPSSLSASVGDRVTITCQASQDISNYLNWYQQKPGKAPNLLIYDASNLETGVPSRFSGSGSGTDFTFTITSLQPEDIATYYCQQYETFGQGTNLEIK
B14: G001_gp1_V10_VRC01c_2021-0121 (antibody, V domains shown)
VH: QVQLVQSGAEVKKPGASVKVSCKASGYSFTGYYIHWVRQVPGQGLEWMGWINPNSGGTNYAQEFQDWVTMTRDTSISTAYMELSRLRSDDTAVYYCARHKPSSRFYFDYWGQGTLVTVSS
VL: DIQMTQSPSTLSASVGDRVTITCRASQSISSWLAWYQQKPGKAPKFLLMYDASSLESGVPSRFSGSGSGTEFTLTISSLQPDDFATYYCQQYETFGQGTKVEIK
B15: G001_gp1_V10_VRC01c_2021-0123 (antibody, V domains shown)
VH: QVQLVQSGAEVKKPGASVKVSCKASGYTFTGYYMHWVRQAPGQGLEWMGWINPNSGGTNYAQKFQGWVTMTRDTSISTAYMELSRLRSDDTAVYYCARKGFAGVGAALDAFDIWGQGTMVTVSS
VL: DIQMTQSPSTLSASVGDRVTITCRASQSISSWLAWYQQKPGKAPKLLIYKASSLESGVPSRFSGSGSGTEFTLTISSLQPDDFATYYCQQYNTFGQGTKVEIK
B16: G001_gp1_V10_VRC01c_2021-0124 (antibody, V domains shown)
VH: QVQLVQSGAEVKKPGASVKVSCKASGYTFTGYYMHWVRQAPGQGLEWMGWINPNSGGTNYARKFQGWVTMTRDTSIGTAYMELSRLRSDDTAVYYCAKSRSRDDTWLFDYWGQGTLVTVSS
VL: DIVMTQSPDSLAVSLGERATINCKSSRSVLYSSNNKNFLTWYQQKPGQPPKLLIYWASTRESGVPERFSGSGSGTDFTLTISSLQAEDVAVYYCQQYESFGQGTKLEIK
B17: G001_gp1_V10_VRC01c_2021-0117 (antibody, V domains shown)
VH: QVQLVQSGAEVKKPGASVKVSCKASGYTFTGYYMHWVRQAPGQGLEWMGWINPNSGGTNYAQKFQGWVTMTRDTSISTAYMEVSRLTSDDTAVYYCARGEDNWYSFNYWGQGTLVTVSS
VL: EIVMTQSPATLSVSPGERATLSCRASQSVSSKLAWYQQKPGQAPRLLIYGTSTRATGIPARFSGSGSGTEFTLTISSLQSEDFAVYYCQLYETFGQGTKVEIK
B18: G001_gp1_V10_VRC01c_2021-0116 (antibody, V domains shown)
VH: QVQLVQSGAEVKKPGASVKVSCKASGYTFTDYYIHWVRQAPGQGLEWMGWINPNSGGTNYAQKFQGRVTMTRDTSITTAYMELSRLRSDDTAVYYCARICSGGSCYRTTSTFDYWGQGTLVTVSS
VL: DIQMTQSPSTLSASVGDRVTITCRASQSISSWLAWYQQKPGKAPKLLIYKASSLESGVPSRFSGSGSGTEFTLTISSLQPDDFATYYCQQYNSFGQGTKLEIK
B19: G001_gp1_V10_VRC01c_2021-0119 (antibody, V domains shown)
VH: QVQLVQSGAEVKRPGASVMVSCKASGYTFTNYYMHWVRQAPGQGLEWMGWINPSSGGTNYAQKFQDWVTMTRDTSISTVYMELNRLRFDDTAVYFCARAQSSGWFLDFWGQGTLVTVSS
VL: DIQMTQSPSSLSASVGDRVTITCQASQGFTKYLNWYQQKLGKAPKLLIYDASNLETGVPSRFSGSASGTDFTFTISSLQPEDIATYYCQQYDLFGGGTKVEIR
B20: G001_gp1_V10_VRC01c_2021-0130 (antibody, V domains shown)
VH: QVQLVQSGAEVKKPGASVKVSCKASGYTFTGYYMHWVRQAPGQGLEWMGWINPKSGGTNYAQKFQDWVTMTRDTSISTAYMELSRLRSDDTAVYYCARARVEPGSSWLWGYWGQGTLVTVSS
VL: DIQMTQSPSSLSASVGDRVTITCQASQDISNYLNWYQQKPGKAPKLLIYDVSNLETGVPSRFSGSGSGTDFTFTISSLQPEDIATYYCQQYETFGGGTKVEIK
B21: G001_gp1_V10_VRC01c_2021-0136 (antibody, V domains shown)
VH: QVQLVQSGAEVKKPGASVKVSCTASGYTFTGYYMHWVRQAPGQGLEWMGWINPNSGGTNYAQKFQGWVTMTRDTSINTAYMELSRLRSDDTAVYYCARARSGYSSGWYWAYWGQGTLVTVSS
VL: DIQMTQSPSSLSASVGDRVTITCQASQDISNHLNWYQQKPGKAPKLLIYDASNLETGVPSRFSGSGSGTDFTFTISSLQPEDIATYYCQQYEFFGGGTKVEIT
B22: G001_gp1_V10_VRC01c_2021-0087 (antibody, V domains shown)
VH: QVQLVQSGAEVKKPGASVKVSCKASGYTFTGNYIHWVRQAPGQGLEWVGWLNPNSGGTNYAQQFQGRVTMTRDTSISTAYMELNRLRSDDTAVFYCARGLWQWEFRYWGQGTLVTVSS
VL: DIVLTQSPGTLSLSPGERATLSCRASQSVSSSNLAWYQQKPGQAPRLLIYGASSRATGIPDRFSGSGSGTDFTLTISRLEPEDCAVYYCQQYEGFGGGTKVEIK
notes: also called G001-0087
B23: G001_LD_07A_VRC01c_58 (antibody, V domains shown)
VH: QVQLVQSGAEVRKPGASVKVSCKASGYTFTDYYIHWVRQAPGQGLEWMGWINPNSGGTNYAQKFQGWVTMTRDTSISTAHMELRRLRSDDRAVYYCARGVVHSGFEFGYWGQGTLVTVSS
VL: DIQMTQSPSTLSASVGDRVTITCRASQSISNWLAWYQQKPGKAPKLLIYKASSLESGVPSRFSGSGSGTEFTLTISSLQPDDFATYYCQQYETFGQGTKVEIK
notes: also called G001-58
B24: G001_LD_07A_VRC01c_59 (antibody, V domains shown)
VH: QVQLVQSGAEVKKPGTSVKVSCKASEYTFTGYYVHWVRQAPGQGLEWMGWINPNSGGTNYAQKFQGWVTMTRDTSISTAYMELSRLKSDDTAVYYCARSDYISSWYFGYWGQGTLVTVSS
VL: EIVMTQSPATLSVSPGERATLSCRASQSVSSNLAWYQQKPGQAPRLLIYGTSTRATGIPARFSGSGSGTEFTLTISSLQSEDFAVYYCQQYETFGQGTKVEIK
notes: also called G001-59

The binders below were run against eOD-GT8 (engineered outer domain germline-targeting version 8), monomer (HIV-1 gp120 engineered outer domain, …) (assay: not given). Settings: not given.
B1: binds.
B2: binds.
B3: binds.
B4: binds.
B5: binds.
B6: binds.
B7: binds.
B8: binds.
B9: binds.
B10: binds.
B11: binds.
B12: binds.
B13: binds.
B14: binds.
B15: binds.
B16: binds.
B17: binds.
B18: binds.
B19: binds.
B20: binds.
B21: binds.

The binders below were run against eOD-GT8 (engineered outer domain germline-targeting version 8), monomer (HIV-1 gp120 engineered outer domain, …) (assay: SPR). Settings: both partners purified.
For B22, the Kd was 0.15 nM.
B23 was tested, and the Kd was 0.437 nM.
With B24 the Kd was 1.76 nM.
